Consider four molecules from PMC12591160, “Polyadenylation Complex CFII Recognizes Downstream Cis‐element for Pre‐mRNA Polyadenylation Through Interaction with an RNA‐Binding Protein in Arabidopsis”.

Data set [1] deals with T1, MBP-FPARRM-His (three RRM domains of FPA) (Arabidopsis thaliana, UniProt Q8LPQ9 1-307).
T1 sequence: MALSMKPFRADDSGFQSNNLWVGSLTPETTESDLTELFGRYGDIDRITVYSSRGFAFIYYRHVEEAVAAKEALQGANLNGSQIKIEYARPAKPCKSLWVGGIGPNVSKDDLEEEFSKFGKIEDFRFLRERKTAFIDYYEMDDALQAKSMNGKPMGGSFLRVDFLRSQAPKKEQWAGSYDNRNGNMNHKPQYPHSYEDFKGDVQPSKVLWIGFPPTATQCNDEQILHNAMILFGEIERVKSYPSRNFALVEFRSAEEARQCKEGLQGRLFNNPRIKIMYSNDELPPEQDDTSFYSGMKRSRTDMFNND
The data set is described as follows: ITC; 25 C, 150 mM NaCl, pH 8.0; EMSA: 10 mM HEPES-KOH pH 7.3, 20 mM KCl, 1 mM MgCl2, 1 mM DTT, 5% glycerol, 0.1 ug/uL tRNA, room temperature 30 min (protein eluted with 200 mM imidazole); ITC: 10 mM HEPES-KOH pH 8.0, 150 mM NaCl, 200 mM imidazole, 25 C. The conditions noted are these: protein: recombinant; tags: MBP (pMAL-c2x), 6xHis.

Data set [2] has as its target T2, MBP-FCARRM-His (RRM domains of FCA) (UniProt O04425 1-343).
T2 sequence: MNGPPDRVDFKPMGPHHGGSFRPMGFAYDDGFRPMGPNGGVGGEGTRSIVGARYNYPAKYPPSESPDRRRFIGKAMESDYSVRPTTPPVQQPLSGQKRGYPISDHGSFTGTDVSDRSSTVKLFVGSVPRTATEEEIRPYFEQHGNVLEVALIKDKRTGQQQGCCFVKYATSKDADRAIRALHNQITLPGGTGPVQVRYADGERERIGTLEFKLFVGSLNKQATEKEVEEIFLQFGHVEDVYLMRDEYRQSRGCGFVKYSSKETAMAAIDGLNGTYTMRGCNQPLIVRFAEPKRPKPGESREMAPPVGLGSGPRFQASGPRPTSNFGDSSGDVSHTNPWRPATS
The data set is described as follows: competition; unlabeled GU-rich competes labeled GU-rich probe; EMSA: 10 mM HEPES-KOH pH 7.3, 20 mM KCl, 1 mM MgCl2, 1 mM DTT, 5% glycerol, 0.1 ug/uL tRNA, room temperature 30 min (protein eluted with 200 mM imidazole); ITC: 10 mM HEPES-KOH pH 8.0, 150 mM NaCl, 200 mM imidazole, 25 C. The settings on record: protein: recombinant; tags: MBP (pMAL-c2x), 6xHis.

The target of data set [3] is T1, MBP-FPARRM-His (three RRM domains of …). The data set is described as follows: EMSA; 2 nM probe, 600 nM protein; EMSA: 10 mM HEPES-KOH pH 7.3, 20 mM KCl, 1 mM MgCl2, 1 mM DTT, 5% glycerol, 0.1 ug/uL tRNA, room temperature 30 min (protein eluted with 200 mM imidazole); ITC: 10 mM HEPES-KOH pH 8.0, 150 mM NaCl, 200 mM imidazole, 25 C. The conditions noted are these: protein: recombinant; tags: MBP (pMAL-c2x), 6xHis; label: Biotin at both ends.

The target of data set [4] is T2, MBP-FCARRM-His (RRM domains of FCA). The data set is described as above. The conditions noted are these: protein: recombinant; tags: MBP (pMAL-c2x), 6xHis; label: Biotin at both ends.
Data set [5] deals with T1, MBP-FPARRM-His (three RRM domains of …). In words: EMSA; 2 nM probe, 2000 nM protein; EMSA: 10 mM HEPES-KOH pH 7.3, 20 mM KCl, 1 mM MgCl2, 1 mM DTT, 5% glycerol, 0.1 ug/uL tRNA, room temperature 30 min (protein eluted with 200 mM imidazole); ITC: 10 mM HEPES-KOH pH 8.0, 150 mM NaCl, 200 mM imidazole, 25 C. The settings on record: protein: recombinant; tags: MBP (pMAL-c2x), 6xHis; label: Biotin at both ends.

Turning to GUUGUUUUGUUUGUUGUUUUGUUU (ssRNA) [GU-rich RNA (unlabeled; ITC and competitor)], the binding result in data set [1] was “no binding”; in data set [2], “binds”.
Regarding GUUGUUUUGUUUGUUGUUUUGUUU (ssRNA) [GU-rich probe (EMSA, biotin)], the results for the binding result in data set [3] and in data set [4] were “no binding” and “binds”, respectively.
Turning to GAAGAGAAGAAGAGAAGAAGAGAA (ssRNA) [GA-rich RNA (unlabeled; ITC and competitor)], the Kd in data set [1] is around 20 µM.
Consider UUCUCUUCUUCUCUUCUUCUCUUC (ssRNA) [UC-rich probe (antisense of GA-rich; EMSA, biotin)], for which, in data set [5], the binding result is on record as “no binding”.
